# According to US20090170750A1 (Novo Nordisk, published 2009):
# Molecular target: purified recombinant human insulin receptor-exon 11 (human) (UniProt P06213)
# Test: competition with 125I-insulin (SPA)
# Chain of purified recombinant human insulin receptor-exon 11 (human) (P06213 other isoform, or with tags, fused parts or gaps limits assumed, form in doubt): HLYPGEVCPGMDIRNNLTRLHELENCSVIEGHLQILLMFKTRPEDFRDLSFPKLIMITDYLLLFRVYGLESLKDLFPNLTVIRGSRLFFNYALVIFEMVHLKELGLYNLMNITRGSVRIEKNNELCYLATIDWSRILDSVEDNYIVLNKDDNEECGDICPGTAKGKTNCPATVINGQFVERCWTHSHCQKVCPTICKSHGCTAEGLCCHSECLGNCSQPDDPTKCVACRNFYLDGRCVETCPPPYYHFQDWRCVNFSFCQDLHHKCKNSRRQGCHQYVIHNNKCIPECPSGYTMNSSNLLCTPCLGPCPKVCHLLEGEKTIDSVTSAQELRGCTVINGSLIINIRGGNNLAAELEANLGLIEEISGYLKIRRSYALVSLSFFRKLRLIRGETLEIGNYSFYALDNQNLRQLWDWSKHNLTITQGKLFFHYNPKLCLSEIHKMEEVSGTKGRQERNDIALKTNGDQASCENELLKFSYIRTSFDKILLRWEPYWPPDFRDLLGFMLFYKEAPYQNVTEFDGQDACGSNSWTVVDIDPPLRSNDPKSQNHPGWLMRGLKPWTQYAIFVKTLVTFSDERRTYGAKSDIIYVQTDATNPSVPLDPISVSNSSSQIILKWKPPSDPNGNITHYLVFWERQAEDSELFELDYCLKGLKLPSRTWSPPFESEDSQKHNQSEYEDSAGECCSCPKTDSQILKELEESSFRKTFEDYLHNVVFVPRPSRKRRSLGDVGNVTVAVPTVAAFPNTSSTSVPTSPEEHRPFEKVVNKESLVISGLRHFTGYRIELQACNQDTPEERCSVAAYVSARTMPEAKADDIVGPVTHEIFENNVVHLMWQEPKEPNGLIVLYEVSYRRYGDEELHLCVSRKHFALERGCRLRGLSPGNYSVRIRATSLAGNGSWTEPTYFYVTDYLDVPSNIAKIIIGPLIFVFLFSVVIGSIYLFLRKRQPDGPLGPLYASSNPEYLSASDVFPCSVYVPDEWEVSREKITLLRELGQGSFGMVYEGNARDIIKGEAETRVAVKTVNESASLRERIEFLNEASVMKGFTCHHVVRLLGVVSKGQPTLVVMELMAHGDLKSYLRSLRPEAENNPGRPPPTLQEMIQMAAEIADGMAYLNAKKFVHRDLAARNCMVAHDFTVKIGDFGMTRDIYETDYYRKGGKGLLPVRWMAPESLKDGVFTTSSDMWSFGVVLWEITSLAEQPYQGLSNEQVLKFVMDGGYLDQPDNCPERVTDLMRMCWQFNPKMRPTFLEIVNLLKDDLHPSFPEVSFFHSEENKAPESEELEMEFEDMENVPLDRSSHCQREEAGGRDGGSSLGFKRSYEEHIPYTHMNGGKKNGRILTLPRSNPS
row,"IR, binding relative to human insulin [%]",Substance
1,221,"single-chain insulin PAK 1855, connecting peptide VGLYSGK [B28D_A18Q] (from UniProt P01308 25-53; P01308 90-110) (ligand)"
2,37,"single-chain insulin PAK 1769033, connecting peptide PVGSSSGK [A18Q_A21G] (from UniProt P01308 25-53; P01308 90-110) (ligand)"
3,172,"single-chain insulin PAK 1878, connecting peptide VGLSSGQ [B3K_A18K_A21G] (from UniProt P01308 25-53; P01308 90-110) (ligand)"
4,40,"single-chain insulin PAK 1854, connecting peptide VGLYSGK [B29E_A18Q] (from UniProt P01308 25-53; P01308 90-110) (ligand)"
5,136,"single-chain insulin PAK 1785, connecting peptide ASWGSGK [A18Q_A21G] (from UniProt P01308 25-53; P01308 90-110) (ligand)"
6,54,"single-chain insulin PAK 1880, connecting peptide VGLSSGQ [B1G_B3Q_A18Q_A21G] (from UniProt P01308 25-53; P01308 90-110) (ligand)"
7,28,"single-chain insulin PAK 1767, connecting peptide AGRGSGP [A18Q_A21G] (from UniProt P01308 25-53; P01308 90-110) (ligand)"
8,60,"single-chain insulin PAK 1849, connecting peptide TGLGKGR [B29E_A18Q] (from UniProt P01308 25-53; P01308 90-110) (ligand)"
9,73,"single-chain insulin PAK 1810, connecting peptide TGLGSGQ [A18Q_A21G] (from UniProt P01308 25-53; P01308 90-110) (ligand)"
10,40,"single-chain insulin PAK 1848, connecting peptide TGLGKGR [B27E_B29E_A18Q] (from UniProt P01308 25-53; P01308 90-110) (ligand)"
11,323,"single-chain insulin PAK 1788, connecting peptide VGLYSGK [A18Q_A21G] (from UniProt P01308 25-53; P01308 90-110) (ligand)"
12,68,"single-chain insulin PAK 1769027, connecting peptide LVGSSSGK [A18Q_A21G] (from UniProt P01308 25-53; P01308 90-110) (ligand)"
13,37,"single-chain insulin PAK 1769053, connecting peptide GVGSSSGK [A18Q_A21G] (from UniProt P01308 25-53; P01308 90-110) (ligand)"
14,82,"single-chain insulin PAK 1847, connecting peptide TGLGKGR [B27E_B29A_A18Q] (from UniProt P01308 25-53; P01308 90-110) (ligand)"
15,25,"single-chain insulin PAK 1802, connecting peptide AGRGK [A18Q_A21G] (from UniProt P01308 25-53; P01308 90-110) (ligand)"
16,118,"single-chain insulin PAK 1812, connecting peptide TGLGRGK [A18Q_A21G] (from UniProt P01308 25-53; P01308 90-110) (ligand)"
17,23,"single-chain insulin with connecting peptide GGSSGK (SEQ ID NO:116), no PAK number printed (from UniProt P01308 25-53; P01308 90-110) (ligand)"
18,38,"single-chain insulin PAK 1876, connecting peptide VGLSSGQ [B27K_B29A_A18Q] (from UniProt P01308 25-53; P01308 90-110) (ligand)"
19,75,"single-chain insulin PAK 1824, connecting peptide GRGSGK [B1G_B3Q_A18Q_A21G] (from UniProt P01308 25-53; P01308 90-110) (ligand)"
20,92,"single-chain insulin PAK 1879, connecting peptide VGLSSGQ [B29A_A18Q] (from UniProt P01308 25-53; P01308 90-110) (ligand)"
21,128,"single-chain insulin PAK 1821, connecting peptide TGLGSGK [B3Q_B29R_A18Q_A21G] (from UniProt P01308 25-53; P01308 90-110) (ligand)"
22,92,"single-chain insulin PAK 1846, connecting peptide TGLGKGR [B29A_A18Q] (from UniProt P01308 25-53; P01308 90-110) (ligand)"
23,63,"single-chain insulin PAK 1817, connecting peptide AGRGSGK [A21G] (from UniProt P01308 25-53; P01308 90-110) (ligand)"

row,"IR, binding relative to human insulin [%]",Substance
1,38,"single-chain insulin PAK 1892, connecting peptide TGLGSGQ [desB1_B3Q_B10A_A18Q] (from UniProt P01308 26-53; P01308 90-110) (ligand)"
2,226,"single-chain insulin PAK 1791, connecting peptide HGLYSGK [A18Q_A21G] (from UniProt P01308 25-53; P01308 90-110) (ligand)"
3,89,"single-chain insulin PAK 1738, connecting peptide VGSSSGK [A18Q] (from UniProt P01308 25-53; P01308 90-110) (ligand)"
4,50,"single-chain insulin PAK 1835, connecting peptide TGLGKGQ [B29E_A18Q] (from UniProt P01308 25-53; P01308 90-110) (ligand)"
5,80,"single-chain insulin PAK 1744, connecting peptide VGSSSGK [A18Q_A21G] (from UniProt P01308 25-53; P01308 90-110) (ligand)"
6,102,"single-chain insulin PAK 1796, connecting peptide AWSGSGK [A18Q_A21G] (from UniProt P01308 25-53; P01308 90-110) (ligand)"
7,36,"single-chain insulin with connecting peptide QGSSGK (SEQ ID NO:110), no PAK number printed (from UniProt P01308 25-53; P01308 90-110) (ligand)"
8,83,"single-chain insulin PAK 1805, connecting peptide AGRGSGK [B3Q_A18Q_A21G] (from UniProt P01308 25-53; P01308 90-110) (ligand)"
9,140,"single-chain insulin PAK 1877, connecting peptide TGLGSGK [B28D_A18Q] (from UniProt P01308 25-53; P01308 90-110) (ligand)"
10,89,"single-chain insulin PAK 1884, connecting peptide VGLSSGQ [B29A_A8K_A18Q] (from UniProt P01308 25-53; P01308 90-110) (ligand)"
11,136,"single-chain insulin PAK 1811, connecting peptide TGLGSGK [A18Q_A21G] (from UniProt P01308 25-53; P01308 90-110) (ligand)"
12,123,"single-chain insulin PAK 1787, connecting peptide VGLSSGQ [A18Q_A21G] (from UniProt P01308 25-53; P01308 90-110) (ligand)"
13,38,"single-chain insulin PAK 1894, connecting peptide TGLGSGQ [desB1_B3Q_B10Q_A18Q] (from UniProt P01308 26-53; P01308 90-110) (ligand)"
14,86,"single-chain insulin PAK 1808, connecting peptide AGRGSGK [B1G_B3Q_A18Q_A21G] (from UniProt P01308 25-53; P01308 90-110) (ligand)"
15,301,"single-chain insulin PAK 1864, connecting peptide TGLGSGK [B3K_A18Q_A21G] (from UniProt P01308 25-53; P01308 90-110) (ligand)"
16,175,"single-chain insulin PAK 1800, connecting peptide AGRGSGK [A18Q_A21G] (from UniProt P01308 25-53; P01308 90-110) (ligand)"
17,33,"single-chain insulin PAK 1723, connecting peptide VGSSRGK [A21G] (from UniProt P01308 25-53; P01308 90-110) (ligand)"
18,42,"single-chain insulin PAK 1769015, connecting peptide EVGSSSGK [A18Q_A21G] (from UniProt P01308 25-53; P01308 90-110) (ligand)"
19,211,"single-chain insulin PAK 1734, connecting peptide VGLSSGK [A21G] (from UniProt P01308 25-53; P01308 90-110) (ligand)"
20,82,"single-chain insulin PAK 1871, connecting peptide VGLSSGQ [B29A_A18K] (from UniProt P01308 25-53; P01308 90-110) (ligand)"
21,83,"single-chain insulin PAK 1860, connecting peptide VGSSSGK [B3K_A18Q_A21G] (from UniProt P01308 25-53; P01308 90-110) (ligand)"
22,35,"single-chain insulin PAK 1875, connecting peptide VGLSSGQ [B28K_B29A_A18Q] (from UniProt P01308 25-53; P01308 90-110) (ligand)"
